Measured values published in patent US20150104459A1.
Values joined by “and” are separate entries in the source; they are usually repeats but may differ in a detail not shown here. Equal entries are not always repeated.

B1: TCN-531 (5091_H13) (antibody, V domains shown)
VH: EVQLVESGGDLVQPGRSLKLSCTGSGFTFGDYGVTWVRQAPGKGLEWVGFIRTRPWGGTADTAASVKGRFTISRDDSKSLAYLQMNSLKTEDTAVYYCCRDAPPNVEVASMTNWYFDLWGRGTLVTVSS
VL: DIQLTQSPSSLSASVGDRVTITCRASQGILNCLAWYQQKPGKVPNLLMYAASTLQSGVPSRFSGSGFGTDFTLTISSLQPEDVATYYCQTYGGVSTFGGGTKVEIR
B2: TCN-529 (5297_H01) (antibody, V domains shown)
VH: QITLRESGPTLVKPTQTLTLTCTFSGFSLSTNGVNVGWIRQPPGKALEWLALIYWDDDKRYSPSLKRRLTITKDTSKNQVVLTLTNMDPVDTATYYCAHRPDFYGDFEYWGPGTLVTVSS
VL: QSALTQPASVSGSPGQSITISCTGSSSDIGGYNYVSWYQQHPGKAPKLMIYDVNNRPSGVSNRFSGSKSGNTASLTISGLQTDDEADYYCGSYTGSPHYVFGTGTKVTVL
B3: TCN-535 (5246_P19) (antibody, V domains shown)
VH: QVQLVQSGSEVKKPGTSVKVSCTASGSVFTNYGISWVRQAPGQGLEWMGGIIPLFGAAKYAQKFQGRVTITADESTKTVYMELSRLTSKDTAIYFCAKAPRVYEYYFDQWGQGTPVTVSS
VL: EIVLTQSPGTLSLSPGERATLSCRASQSVSSSQLAWYQQKPGQAPRLIIYGASTRATGIPDRFSGSGSGTDFTLTIGRLEPEDFAVFFCQQYSTSPPTFGQGTKVDFK
B4: TCN-551 (5243_D01) (antibody, V domains shown)
VH: EVQLVQSGSEVKKPGESLKISCKGSGYSFSNYWIGWVRHMPGKGLEWMGIIYPGDSDTRYSPSFQGQVTMSADKSSSTVYLQWSSLKASDTAIYYCARRGGHSFGYGSGGDTHSEFDSWGQGTLVTVSS
VL: QSVLTQSPSVSAAPGQKVTISCSGSDSNIGDYFVCWYQHLPGKPPQLLIYENNKRPSGIPDRFSGSKSGTSATLGITGIQTGDEADYYCATWDGSLSAWVFGGGTKLTVL
B5: TCN-538 (3206_O17) (antibody, V domains shown)
VH: QITLKESGPTLVKPTQTLTLTCVFSGFSLSITGVRVGWIRQPPGKALEWLALISWDDEKHYSPSLQSRLTITKDTSKNQVVLTMTNLDPVDTATYYCARSTDRGHVLRYFGWMLPGDAFDVWGQGTMVTVSS
VL: DIVMTQSPDFLPVSLGERATINCKSSQRVLYSSNNKNYLAWYQLKPGQPPKLIIYWASTRESGVPDRFSGSGSGTEFTLTISSLQAEDVAVYYCQQYYSRPYTFGQGTKLEIK
B6: TCN-523 (5248_A17) (antibody, V domains shown)
VH: QVQLVQSGAEVKKPGSSVKVSCKASGGSFSNYAFSWVRQAPGQGLEWMGGTIPLLGTTNYAQKFQGRVTISADQFTSTAYMELGSLRSEDTAVYYCTRRKMTTAFDSWGQGTLVTVSS
VL: QPVLTQPPSASASLGASVTLTCTLSSAYSNYKVDWYQQRPGKGPRFVMRVGTGGIVGSKGDGIPDRFSVLGSGLNRYLTIKNIQEEDESDYHCGADHGSGSNFVSPYVFGGGTKLTVL
B7: TCN-539 (5056_A08) (antibody, V domains shown)
VH: QVQLVESGGGVVQPGRSLRLSCAASEITFITYAMHWVRQAPGKGLEWVALISDDGSNKFYADSVKGRFTISRDNSKNTLYLQMNSLRAEDTAAYYCAREGVYFDSGTYRGYFDYWGQETLVTVSS
VL: EIVLTQSPATLSLSPGERATLSCRASQSVSSYLAWYQQKPGQAPRLLIYDASNRATGIPARFSGSGSGTDFTLTISSLEPEDFAVYYCQQRSHWPPITFGQGTRLEIK

Each binder was assayed against recombinant homotrimeric HA, A/Japan/305/57 H2N2 (Influenza A virus A/Japan/305/57 (H2N2)) (assay: trimeric HA microarray; transfection supernatant set 3). Settings: remark: other sources report otherwise.

Binder | Trimeric HA Binding: RLU [RLU]
B1 | 489

These binders were tested against recombinant homotrimeric HA, A/Vietnam/1203/04 H5N1 (Influenza A virus A/Vietnam/1203/04 (H5N1)) in the same assay as above. Settings: remark: other sources report otherwise.

Binder | Trimeric HA Binding: RLU [RLU]
B1 | 2410

These binders were tested against recombinant homotrimeric HA, A/Solomon Islands/3/06 H1N1 (Influenza A virus A/Solomon Islands/3/06 (H1N1)) in the same assay as above. Settings: remark: other sources report otherwise.

Binder | Trimeric HA Binding: RLU [RLU]
B2 | 43

The binders below were run against recombinant soluble homotrimeric HA of A/duck/Yangzhou/02/2005 (H8N4) (Influenza A virus A/duck/Yangzhou/02/2005 (H8N4)) (assay: HA microarray, BCC supernatant). Settings: remark: other sources report otherwise.

Binder | Trimeric HA Binding RLU [RLU]
B3 | 36600
B1 | 3120
B4 | 9820
B5 | 6120

The binders below were run against recombinant soluble homotrimeric HA of A/Indonesia/5/05 (H5N1) (Influenza A virus A/Indonesia/5/2005 (H5N1)) (assay: HA microarray, BCC supernatant). Settings: remark: other sources report otherwise.

Binder | Trimeric HA Binding RLU [RLU]
B6 | 45800
B3 | 45600
B4 | 53500
B5 | 26400

The binders below were run against recombinant soluble homotrimeric HA of A/chicken/Vietnam/NCVD-016/08 (H5N1) (Influenza A virus A/chicken/Vietnam/NCVD-016/2008 (H5N1)) (assay: HA microarray, BCC supernatant). Settings: remark: other sources report otherwise.

Binder | Trimeric HA Binding RLU [RLU]
B6 | 48900
B3 | 50000
B7 | 100
B2 | 410
B5 | 37300

These binders were tested against recombinant soluble homotrimeric HA of A/Vietnam/1203/04 (H5N1) (Influenza A virus A/Vietnam/1203/2004 (H5N1)) (assay: HA microarray, BCC supernatant). Settings: remark: other sources report otherwise.

Binder | Trimeric HA Binding RLU [RLU]
B6 | 3380
B3 | 4740
B7 | 545
B4 | 4150

What follows are binders tested against recombinant soluble homotrimeric HA of A/swine/Ontario/01911-2/99 (H4N6) (Influenza A virus A/Swine/Ontario/01911-2/99 (H4N6)) (assay: HA microarray, BCC supernatant). Settings: remark: other sources report otherwise.

Binder | Trimeric HA Binding RLU [RLU]
B3 | 5950

The binders below were run against recombinant soluble homotrimeric HA of A/northern shoveler/California/HKWF115/2007 (H6N1) (Influenza A virus A/northern shoveler/California/HKWF115/2007 (H6N1)) (assay: HA microarray, BCC supernatant). Settings: remark: other sources report otherwise.

Binder | Trimeric HA Binding RLU [RLU]
B6 | 46900
B3 | 48200
B5 | 17400

These binders were tested against recombinant soluble homotrimeric HA of A/Egypt/3300-NAMRU3/08 (H5N1) (Influenza A virus A/Egypt/3300-NAMRU3/2008 (H5N1)) (assay: HA microarray, BCC supernatant). Settings: remark: other sources report otherwise.

Binder | Trimeric HA Binding RLU [RLU]
B6 | 36500
B3 | 39400
B7 | 11400
B4 | 47200
B5 | 23600

The binders below were run against recombinant soluble homotrimeric HA of A/Netherlands/219/03 (H7N7) (Influenza A virus A/Netherlands/219/03 (H7N7)) (assay: HA microarray, BCC supernatant). Settings: remark: other sources report otherwise.

Binder | Trimeric HA Binding RLU [RLU]
B5 | 6530

These binders were tested against recombinant soluble homotrimeric HA of A/Solomon Islands/3/06 (H1N1) (Influenza A virus A/Solomon Islands/3/2006 (H1N1)) (assay: HA microarray, BCC supernatant). Settings: remark: other sources report otherwise.

Binder | Trimeric HA Binding RLU [RLU]
B6 | 37900
B3 | 39400
B7 | 239
B2 | 179
B4 | 53800
B5 | 33200

What follows are binders tested against recombinant soluble homotrimeric HA of A/Anhui/1/05 (H5N1) (Influenza A virus A/Anhui/1/2005 (H5N1)) (assay: HA microarray, BCC supernatant). Settings: remark: other sources report otherwise.

Binder | Trimeric HA Binding RLU [RLU]
B6 | 5700
B3 | 6880
B4 | 4190

Each binder was assayed against recombinant soluble homotrimeric HA of A/Wisconsin/67/05 (H3N2) (Influenza A virus A/Wisconsin/67/2005 (H3N2)) (assay: HA microarray, BCC supernatant). Settings: remark: other sources report otherwise.

Binder | Trimeric HA Binding RLU [RLU]
B3 | 34300
B7 | 715
B2 | 51600
B1 | 7090
B4 | 6840
B5 | 6900

These binders were tested against recombinant soluble homotrimeric HA of A/Japan/305/57 (H2N2) (Influenza A virus A/Japan/305/1957 (H2N2)) (assay: HA microarray, BCC supernatant). Settings: remark: other sources report otherwise.

Binder | Trimeric HA Binding RLU [RLU]
B6 | 5110
B3 | 26100
B7 | 468
B2 | 435
B1 | 410
B4 | 22600
B5 | 43000

These binders were tested against recombinant soluble homotrimeric HA of A/California/4/09 (H1N1) (Influenza A virus A/California/04/2009 (H1N1)) (assay: HA microarray, BCC supernatant). Settings: remark: other sources report otherwise.

Binder | Trimeric HA Binding RLU [RLU]
B6 | 34700
B3 | 48600
B4 | 53400
B5 | 13800

The binders below were run against recombinant soluble homotrimeric HA, A/chicken/Vietnam/NCVD-016/08 (H5N1) (influenza A virus A/chicken/Vietnam/NCVD-016/2008 (H5N1)) (assay: microarray, trimeric HA, transfection supernatant). Settings: remark: other sources report otherwise.

Binder | Trimeric HA Binding RLU
B6 | 18900 RLU and 24000 RLU and 51300 RLU
B3 | 20900 RLU
B7 | 3500 RLU
B4 | 792 RLU
B5 | 2950 RLU

These binders were tested against recombinant soluble homotrimeric HA, A/Hong Kong/156/97 (H5N1) (influenza A virus A/Hong Kong/156/97 (H5N1)) (assay: microarray, trimeric HA, transfection supernatant). Settings: remark: other sources report otherwise.

Binder | Trimeric HA Binding RLU [RLU]
B6 | 28400
B7 | 1450
B4 | 792
B5 | 5170

The binders below were run against recombinant soluble homotrimeric HA, A/Anhui/1/05 (H5N1) (influenza A virus A/Anhui/1/2005 (H5N1)) (assay: microarray, trimeric HA, transfection supernatant). Settings: remark: other sources report otherwise.

Binder | Trimeric HA Binding RLU [RLU]
B7 | 3240

Each binder was assayed against recombinant soluble homotrimeric HA, A/Hong Kong/1073/99 (H9N2) (influenza A virus A/Hong Kong/1073/99 (H9N2)) (assay: microarray, trimeric HA, transfection supernatant). Settings: remark: other sources report otherwise.

Binder | Trimeric HA Binding RLU
B6 | 24200 RLU and 24600 RLU
B3 | 21200 RLU

Each binder was assayed against recombinant soluble homotrimeric HA, A/northern shoveler/California/HKWF115/2007 (H6N1) (influenza A virus A/northern shoveler/California/HKWF115/2007 (H6N1)) (assay: microarray, trimeric HA, transfection supernatant). Settings: remark: other sources report otherwise.

Binder | Trimeric HA Binding RLU
B6 | 29400 RLU and 25100 RLU and 46900 RLU
B3 | 18100 RLU
B7 | 2860 RLU
B5 | 8900 RLU

What follows are binders tested against recombinant homotrimeric HA, A/Egypt/3300-NAMRU3/08 H5N1 (Influenza A virus A/Egypt/3300-NAMRU3/08 (H5N1)) (assay: trimeric HA microarray; transfection supernatant set 5). Settings: remark: other sources report otherwise.

Binder | Trimeric HA Binding: RLU [RLU]
B7 | 24300
B4 | 17400

These binders were tested against recombinant homotrimeric HA, A/Wisconsin/67/05 H3N2 (Influenza A virus A/Wisconsin/67/05 (H3N2)) in the same assay as above. Settings: remark: other sources report otherwise.

Binder | Trimeric HA Binding: RLU [RLU]
B4 | 936
B5 | 2070

Each binder was assayed against recombinant homotrimeric HA, A/swine/Ontario/01911-2/99 H4N6 (Influenza A virus A/swine/Ontario/01911-2/99 (H4N6)) in the same assay as above. Settings: remark: other sources report otherwise.

Binder | Trimeric HA Binding: RLU [RLU]
B7 | 6510
